Numbering of substitutions follows the chain as printed.
T1: human beta-Klotho (KLB) (human, UniProt Q86Z14 53-997)
T1 construct: also called human KLB
T1 sequence (looked up): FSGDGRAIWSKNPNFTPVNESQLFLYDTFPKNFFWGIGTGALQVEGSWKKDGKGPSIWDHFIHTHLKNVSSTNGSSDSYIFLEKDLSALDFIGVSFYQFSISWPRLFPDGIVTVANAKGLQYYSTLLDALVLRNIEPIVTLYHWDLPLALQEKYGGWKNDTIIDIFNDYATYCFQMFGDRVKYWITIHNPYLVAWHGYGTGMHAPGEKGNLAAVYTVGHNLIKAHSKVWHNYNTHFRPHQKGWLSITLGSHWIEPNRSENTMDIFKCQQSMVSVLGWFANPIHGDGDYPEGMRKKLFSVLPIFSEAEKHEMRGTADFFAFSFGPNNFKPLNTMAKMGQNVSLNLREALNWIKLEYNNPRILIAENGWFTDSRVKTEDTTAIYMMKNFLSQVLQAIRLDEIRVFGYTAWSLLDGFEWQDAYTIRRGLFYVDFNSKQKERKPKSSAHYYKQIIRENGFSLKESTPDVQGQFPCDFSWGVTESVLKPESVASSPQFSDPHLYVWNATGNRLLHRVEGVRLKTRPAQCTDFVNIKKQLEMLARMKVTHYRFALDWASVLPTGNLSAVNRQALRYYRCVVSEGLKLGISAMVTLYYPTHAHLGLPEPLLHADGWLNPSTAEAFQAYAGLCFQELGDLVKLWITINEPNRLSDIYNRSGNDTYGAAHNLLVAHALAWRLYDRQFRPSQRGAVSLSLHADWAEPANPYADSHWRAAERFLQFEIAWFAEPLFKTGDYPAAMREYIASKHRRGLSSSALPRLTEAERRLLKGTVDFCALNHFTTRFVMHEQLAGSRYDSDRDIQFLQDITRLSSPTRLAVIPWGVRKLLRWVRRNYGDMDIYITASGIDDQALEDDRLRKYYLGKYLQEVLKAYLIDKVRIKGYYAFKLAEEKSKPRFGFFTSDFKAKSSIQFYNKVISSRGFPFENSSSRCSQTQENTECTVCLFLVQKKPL

B1: 16H7 variant, light chain G23L (antibody, human IgG4 S228P, lambda, V domains shown)
VH: not shown
VL: SYVLTQPPSVSVAPGQTARITCLGNNIGSESVHWYQQKPGQAPVLVVYDDSDRPSGIPERFSGSNSGNTATLTISRVEAGDEADYYCQVWDGNSDHVVFGGGTKLTVLG
notes: IgG4 backbone
B2: 16H7 variant, light chain G24H (antibody, human IgG4 S228P, lambda, V domains shown)
VH: not shown
VL: B1 VL with L23G, G24H
notes: IgG4 backbone
B3: 16H7 variant, light chain G24L (antibody, human IgG4 S228P, lambda, V domains shown)
VH: not shown
VL: B1 VL with L23G, G24L
notes: IgG4 backbone
B4: 16H7 variant, light chain I27L (antibody, IgG4, V domains shown)
VH: not shown
VL: B1 VL with L23G, I27L
notes: IgG4 backbone; copies: 2 + 2
B5: 16H7 variant, light chain G24R (antibody, human IgG4 S228P, lambda, V domains shown)
VH: not shown
VL: B1 VL with L23G, G24R
notes: IgG4 backbone
B6: 16H7 variant, light chain G24M (antibody, human IgG4 S228P, lambda, V domains shown)
VH: not shown
VL: B1 VL with L23G, G24M
notes: IgG4 backbone
B7: 16H7 variant, light chain N25A (antibody, human IgG4 S228P, lambda, V domains shown)
VH: not shown
VL: B1 VL with L23G, N25A
notes: IgG4 backbone
B8: 16H7 variant, light chain I27K (antibody, IgG4, V domains shown)
VH: not shown
VL: B1 VL with L23G, I27K
notes: IgG4 backbone; copies: 2 + 2
B9: 16H7 variant, light chain I27D (antibody, human IgG4 S228P, lambda, V domains shown)
VH: not shown
VL: B1 VL with L23G, I27D
notes: IgG4 backbone
B10: 16H7 variant, light chain I27S (antibody, human IgG4 S228P, lambda, V domains shown)
VH: not shown
VL: B1 VL with L23G, I27S
notes: IgG4 backbone
B11: 16H7 variant, light chain I27E (antibody, human IgG4 S228P, lambda, V domains shown)
VH: not shown
VL: B1 VL with L23G, I27E
notes: IgG4 backbone
B12: 16H7 variant, light chain G23S (antibody, human IgG4 S228P, lambda, V domains shown)
VH: not shown
VL: B1 VL with L23S
notes: IgG4 backbone
B13: 16H7 variant, light chain G24I (antibody, human IgG4 S228P, lambda, V domains shown)
VH: not shown
VL: B1 VL with L23G, G24I
notes: IgG4 backbone
B14: 16H7 variant, light chain G23V (antibody, human IgG4 S228P, lambda, V domains shown)
VH: not shown
VL: B1 VL with L23V
notes: IgG4 backbone
B15: 16H7 variant, light chain G23T (antibody, human IgG4 S228P, lambda, V domains shown)
VH: not shown
VL: B1 VL with L23T
notes: IgG4 backbone
B16: 16H7 variant, light chain G24A (antibody, human IgG4 S228P, lambda, V domains shown)
VH: not shown
VL: B1 VL with L23G, G24A
notes: IgG4 backbone
B17: 16H7 variant, light chain G24K (antibody, human IgG4 S228P, lambda, V domains shown)
VH: not shown
VL: B1 VL with L23G, G24K
notes: IgG4 backbone
B18: 16H7 variant, light chain G23M (antibody, human IgG4 S228P, lambda, V domains shown)
VH: not shown
VL: B1 VL with L23M
notes: IgG4 backbone
B19: 16H7 variant, light chain G24T (antibody, human IgG4 S228P, lambda, V domains shown)
VH: not shown
VL: B1 VL with L23G, G24T
notes: IgG4 backbone
B20: 16H7 variant, light chain G24E (antibody, human IgG4 S228P, lambda, V domains shown)
VH: not shown
VL: B1 VL with L23G, G24E
notes: IgG4 backbone
B21: 16H7 variant, light chain N25C (antibody, human IgG4 S228P, lambda, V domains shown)
VH: not shown
VL: B1 VL with L23G, N25C
notes: IgG4 backbone
B22: 16H7 variant, light chain G24N (antibody, human IgG4 S228P, lambda, V domains shown)
VH: not shown
VL: B1 VL with L23G, G24N
notes: IgG4 backbone
B23: 16H7 variant, light chain G23N (antibody, human IgG4 S228P, lambda, V domains shown)
VH: not shown
VL: B1 VL with L23N
notes: IgG4 backbone
B24: 16H7 variant, light chain G24F (antibody, human IgG4 S228P, lambda, V domains shown)
VH: not shown
VL: B1 VL with L23G, G24F
notes: IgG4 backbone
B25: 16H7 variant, light chain G23R (antibody, human IgG4 S228P, lambda, V domains shown)
VH: not shown
VL: B1 VL with L23R
notes: IgG4 backbone
B26: 16H7 variant, light chain G24Y (antibody, human IgG4 S228P, lambda, V domains shown)
VH: not shown
VL: B1 VL with L23G, G24Y
notes: IgG4 backbone
B27: 16H7 variant, light chain G24W (antibody, human IgG4 S228P, lambda, V domains shown)
VH: not shown
VL: B1 VL with L23G, G24W
notes: IgG4 backbone
B28: 16H7 variant, light chain G24V (antibody, human IgG4 S228P, lambda, V domains shown)
VH: not shown
VL: B1 VL with L23G, G24V
notes: IgG4 backbone
B29: 16H7 variant, light chain G24S (antibody, human IgG4 S228P, lambda, V domains shown)
VH: not shown
VL: B1 VL with L23G, G24S
notes: IgG4 backbone
B30: 16H7 variant, light chain G24C (antibody, human IgG4 S228P, lambda, V domains shown)
VH: not shown
VL: B1 VL with L23G, G24C
notes: IgG4 backbone
B31: 16H7 variant, light chain G23P (antibody, human IgG4 S228P, lambda, V domains shown)
VH: not shown
VL: B1 VL with L23P
notes: IgG4 backbone
B32: 16H7 variant, light chain G23Y (antibody, human IgG4 S228P, lambda, V domains shown)
VH: not shown
VL: B1 VL with L23Y
notes: IgG4 backbone
B33: 16H7 variant, light chain I27G (antibody, IgG4, V domains shown)
VH: not shown
VL: B1 VL with L23G, I27G
notes: IgG4 backbone; copies: 2 + 2

Legend:
[1] = biological target: human FGFR1c/KLB cell surface receptor complex on iLite FGF21 reporter cells (human, UniProt P11362 22-822; Q86Z14 1-1044); test: cell-based or functional assay
Chain of human FGFR1c/KLB cell surface receptor complex on iLite FGF21 reporter cells (P11362 22-822, chain 1 of 2): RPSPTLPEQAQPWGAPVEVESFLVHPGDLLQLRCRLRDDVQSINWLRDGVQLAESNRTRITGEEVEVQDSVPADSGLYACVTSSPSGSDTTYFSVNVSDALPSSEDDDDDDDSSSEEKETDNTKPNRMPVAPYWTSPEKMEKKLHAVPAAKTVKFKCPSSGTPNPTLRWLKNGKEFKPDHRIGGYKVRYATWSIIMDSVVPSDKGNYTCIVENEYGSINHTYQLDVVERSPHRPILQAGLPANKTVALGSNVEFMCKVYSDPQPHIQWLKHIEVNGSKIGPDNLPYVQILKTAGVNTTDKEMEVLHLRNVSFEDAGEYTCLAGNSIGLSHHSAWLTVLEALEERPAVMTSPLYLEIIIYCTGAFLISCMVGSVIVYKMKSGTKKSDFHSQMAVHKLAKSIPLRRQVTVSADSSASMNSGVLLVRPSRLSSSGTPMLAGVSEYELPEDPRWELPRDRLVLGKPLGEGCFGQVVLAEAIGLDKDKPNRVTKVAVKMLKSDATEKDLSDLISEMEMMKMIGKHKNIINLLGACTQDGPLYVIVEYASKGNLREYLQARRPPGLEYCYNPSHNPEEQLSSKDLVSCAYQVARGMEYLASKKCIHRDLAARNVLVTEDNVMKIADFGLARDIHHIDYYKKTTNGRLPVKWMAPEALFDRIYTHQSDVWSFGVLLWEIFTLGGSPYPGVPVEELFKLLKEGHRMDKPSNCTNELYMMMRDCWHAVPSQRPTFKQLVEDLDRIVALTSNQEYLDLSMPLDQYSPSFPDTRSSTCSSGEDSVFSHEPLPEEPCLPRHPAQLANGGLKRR
Chain of human FGFR1c/KLB cell surface receptor complex on iLite FGF21 reporter cells (Q86Z14 whole entry, chain 2 of 2): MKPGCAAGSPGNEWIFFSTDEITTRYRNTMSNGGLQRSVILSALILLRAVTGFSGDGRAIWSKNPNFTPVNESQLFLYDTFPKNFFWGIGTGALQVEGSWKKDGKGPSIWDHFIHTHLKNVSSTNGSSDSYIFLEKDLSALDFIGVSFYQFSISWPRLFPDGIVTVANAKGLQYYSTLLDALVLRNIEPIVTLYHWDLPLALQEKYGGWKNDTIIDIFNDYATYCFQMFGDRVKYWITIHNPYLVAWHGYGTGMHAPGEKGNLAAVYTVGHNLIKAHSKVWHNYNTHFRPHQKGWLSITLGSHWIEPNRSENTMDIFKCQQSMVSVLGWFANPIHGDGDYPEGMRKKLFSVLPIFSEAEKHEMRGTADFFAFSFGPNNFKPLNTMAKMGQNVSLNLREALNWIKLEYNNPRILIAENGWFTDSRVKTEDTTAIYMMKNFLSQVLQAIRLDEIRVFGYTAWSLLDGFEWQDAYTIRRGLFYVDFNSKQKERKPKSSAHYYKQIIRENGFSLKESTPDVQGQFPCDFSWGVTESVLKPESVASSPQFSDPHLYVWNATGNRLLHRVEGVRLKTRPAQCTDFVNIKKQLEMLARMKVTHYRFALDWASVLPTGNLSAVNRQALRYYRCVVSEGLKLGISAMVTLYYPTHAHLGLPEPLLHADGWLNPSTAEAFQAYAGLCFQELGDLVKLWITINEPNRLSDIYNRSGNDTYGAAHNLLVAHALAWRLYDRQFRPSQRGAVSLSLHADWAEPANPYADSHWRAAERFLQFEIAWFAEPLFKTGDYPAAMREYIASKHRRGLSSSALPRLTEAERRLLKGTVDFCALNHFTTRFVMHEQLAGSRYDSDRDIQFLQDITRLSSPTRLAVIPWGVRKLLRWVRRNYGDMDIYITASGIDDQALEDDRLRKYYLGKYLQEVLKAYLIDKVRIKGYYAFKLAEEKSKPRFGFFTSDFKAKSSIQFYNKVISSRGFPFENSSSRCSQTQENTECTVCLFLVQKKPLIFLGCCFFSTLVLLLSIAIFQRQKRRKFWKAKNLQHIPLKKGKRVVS

human beta-Klotho (KLB) = biological target: T1, human beta-Klotho (KLB); test: BLI off-rate screen (Octet), Ab captured via Fc;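 also: antibody supernatants applied at 25 µg/mL, dissociation monitored over 1800 s in D-PBS with 0.1% BSA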

Binder | Mean E max (%) [1] | Mean EC50 [1] | koff (human beta-Klotho (KLB))
B1 | 106% | 0.131 nM | 9.1e-05 s⁻¹
B2 | 99% | 0.125 nM | 2.7e-05 s⁻¹
B3 | 108% | 0.161 nM | 3.4e-05 s⁻¹
B4 | 110% | 0.124 nM | 6.2e-05 s⁻¹
B5 | 98% | 0.106 nM | 1.5e-06 s⁻¹
B6 | 109% | 0.115 nM | 4.8e-05 s⁻¹
B7 | 96% | 0.081 nM | 1.6e-05 s⁻¹
B8 | 99% | 0.127 nM | 5.3e-05 s⁻¹
B9 | 107% | 0.107 nM | 4.6e-05 s⁻¹
B10 | 106% | 0.141 nM | 4.9e-05 s⁻¹
B11 | 98% | 0.121 nM | 4.6e-05 s⁻¹
B12 | 120% | 0.143 nM | 1e-07 s⁻¹
B13 | 109% | 0.143 nM | 2.7e-05 s⁻¹
B14 | 93% | 0.105 nM | 3.9e-05 s⁻¹
B15 | 112% | 0.105 nM | 1.5e-05 s⁻¹
B16 | 95% | 0.094 nM | 3.6e-05 s⁻¹
B17 | 102% | 0.143 nM | 3.9e-05 s⁻¹

Binder | Mean E max (%) [1] | Mean EC50 [1] | koff (human beta-Klotho (KLB))
B18 | 91% | 0.122 nM | 4.1e-05 s⁻¹
B19 | 106% | 0.139 nM | 6.9e-05 s⁻¹
B20 | 112% | 0.118 nM | 2.7e-05 s⁻¹
B21 | 110% | 0.133 nM | 3.6e-06 s⁻¹
B22 | 103% | 0.114 nM | 1.7e-05 s⁻¹
B23 | 100% | 0.138 nM | 2.7e-05 s⁻¹
B24 | 107% | 0.151 nM | 2.3e-05 s⁻¹
B25 | 103% | 0.135 nM | 3.1e-05 s⁻¹
B26 | 107% | 0.137 nM | 4.1e-05 s⁻¹
B27 | 110% | 0.145 nM | 3.7e-05 s⁻¹
B28 | 102% | 0.125 nM | 8.5e-05 s⁻¹
B29 | 121% | 0.135 nM | 8.3e-06 s⁻¹
B30 | 104% | 0.106 nM | 2.2e-05 s⁻¹
B31 | 101% | 0.117 nM | 3.8e-05 s⁻¹
B32 | 107% | 0.124 nM | 4.2e-05 s⁻¹
B33 | 111% | 0.123 nM | 3e-05 s⁻¹

Reference: patent publication US20220010021A1 (Sanofi, published 2022)
